Reference: IntAct's records for PubMed 19787799

B1: Protein ERGIC-53 (Homo sapiens), P49257 (parent)
chain: MAGSRQRGLRARVRPLFCALLLSLGRFVRGDGVGGDPAVALPHRRFEYKYSFKGPHLVQSDGTVPFWAHAGNAIPSSDQIRVAPSLKSQRGSVWTKTKAAFENWEVEVTFRVTGRGRIGADGLAIWYAENQGLEGPVFGSADLWNGVGIFFDSFDNDGKKNNPAIVIIGNNGQIHYDHQNDGASQALASCQRDFRNKPYPVRAKITYYQNTLTVMINNGFTPDKNDYEFCAKVENMIIPAQGHFGISAATGGLADDHDVLSFLTFQLTEPGKEPPTPDKEISEKEKEKYQEEFEHFQQELDKKKEEFQKGHPDLQGQPAEEIFESVGDRELRQVFEGQNRIHLEIKQLNRQLDMILDEQRRYVSSLTEEISKRGAGMPGQHGQITQQELDTVVKTQHEILRQVNEMKNSMSETVRLVSGMQHPGSAGGVYETTQHFIDIKEHLHIVKRDIDNLVQRNMPSNEKPKCPELPPFPSCLSTVHFIIFVVVQTVLFIGYIMYRSQQEAAAKKFF
partner: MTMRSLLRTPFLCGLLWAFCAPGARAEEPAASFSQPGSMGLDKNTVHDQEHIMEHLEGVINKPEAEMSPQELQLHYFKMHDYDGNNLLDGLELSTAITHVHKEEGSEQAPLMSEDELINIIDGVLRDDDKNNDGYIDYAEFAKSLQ

Variants of: B1
Details: with mcfd2_human MCFD2, Q8NI22

effect of a mutation on the interaction	Variant
disrupting interaction strength	W67S
